Results on six molecules are retold here after patent US10119122B2, “Differentiation and expansion of endothelial cells from pluripotent stem cells and the in vitro formation of vasculature like structures” (Academisch Ziekenhuis Leiden, priority 2013, dated 2018).

“Also recorded” adds a separate entry of the source.

Format in all cases: cell-based, human
In assay [1] the test system is control iPSC-derived ECs co-cultured with control iPSC-derived pericytes/mesenchymal cells. Nature of the assay: 2D endothelial-pericyte co-culture sprouting assay, control ECs. The conditions noted are these: for formation of vascular/endothelial sprouts: TGFβ3 1 ng/ml, compared to control condition. As to the method:
(§1) The endothelial capillary-like network formation assay was carried out as previously described but with major modifications (Evensen et al., 2013). These included using both ECs and pericytes derived from human iPSC lines. This is described in more detail elsewhere (Orlova et al., manuscript in preparation). ECs were labelled with the general cytoplasmic labeling dye (PKH-26). For the sprouting assay, 12,000 ECs derived from both control and diseased lines were plated with 50,000 control iPSC-derived pericytes/well on 0.1% gelatin coated 96-well plates in EGM-2 (Lonza, CC-3162). Next day and on the day 4 of the assay, medium was replaced with new EGM-2 media containing tested compounds as indicated in the figure legends. Endothelial-pericyte co-culture was terminated on day 7 of the assay each well immunofluorescently stained for quantification, as follows: co-cultures were fixed with the 4% paraformaldehyde (PFA), permeabilized with the 0.1% TX-100 and blocked with the normal goat serum (Dako). Endothelial sprouts were visualized with the mouse anti-CD31 (Dako, 1:200). In some experiment with the mouse blocking antibodies, rabbit anti-CD31 (Scbt, 1:200) was used instead. Pericytes were visualized with antibodies against SM22 (Sigma, 1:200). The endothelial network was imaged with the BD Pathway 855 system using the 4× or 10× objective and 2×2 (or 3×3) Montage mode. Total area covered by the endothelial sprouts was quantified with the protocol developed within cell image analysis software CellProfiller (Broad Institute). High magnification images were acquired with the SP5 confocal microscope, using 10× and 40× objectives.
A two-dimensional co-culture system was first established in vitro consisting of control iPSC-derived ECs cultured with the control iPSC-derived mesenchymal cells (FIG. 10A). The protocol was optimized and adapted to the BD Pathway 855 imaging system, based on the protocol initially described for the co-culture of HUVECs and vascular SMCs (vSMCs) (Evensen et al., 2013). On day 7 of the co-culture, iPSC-derived EC had organized and formed spouts on the top mesenchymal cells, as evidenced by immunofluorescent staining with the EC-specific CD31 and SMC-specific SM22 markers (FIG. 10B).
(§2) Endothelial cell-pericyte co-culture was performed as described previously (Evensen et al., 2013) but using conditions optimized for iPSC-derived ECs and pericytes as described (Orlova et al., manuscript in preparation). In brief, 12,000 and 50,000 iPSC-derived ECs and pericytes were plated, respectively, in each well of a 96-well plate. Next day the co-cultures were refreshed with the specific treatment conditions indicated. The co-culture was fixed on day 7, and EC sprouts stained with anti-CD31 antibody (1:200, Dako) (as described in Orlova et al., manuscript in preparation). Pericytes were visualized with the anti-SM22 antibody (1:200, Abcam). The BD Pathway 855 system was used for automatic image acquisition, with the 4× objective and 2×2 (or in some cases 3×3) montage mode. CellProfiller (Broad Institute) custom pipeline was used for the image quantification.

In a further assay the test system is hPSCs. The experiment in a line: Monolayer endothelial differentiation of hPSCs in defined medium, flow cytometry at day 10. The conditions noted are these: additional Activin 25 ng/ml on days 0-3 (BVAC vs BVC); range of iPSC lines; data not shown. An excerpt:
hiPSC lines were generated from Fib or BOECs using conditional lentiviral vectors containing the four transcription factors oct4, c-myc, Klf4 and Sox2, and characterized as described previously (Dambrot et al., 2013; Freund et al., 2008; Orlova et al., manuscript in preparation). hiPSCs and hESC (line HES-NL4; (van de Stolpe et al., 2005)) were routinely maintained on growth factor reduced MATRIGEL®-(BD, 354230) coated plates in mTeSR media (StemCell Technologies, 05850) and passaged mechanically. Differentiation was induced three days after passaging colonies by replacing mTeSR medium with the differentiation media based on BPEL (without PVA) (Ng et al., 2008) with timed addition of the following growth factors: 25 ng/ml ActivinA (Miltenyi, 130-095-547), 30 ng/ml BMP4 (Miltenyi, 130-095-549), VEGF165 (R&D Systems, 293-VE) and small molecule inhibitor CHIR99021 (Tocris, 4423). At day 3 and day 7 of differentiation, the media was refreshed with BPEL containing VEGF and 5 μM SB43152 (Tocris, 1614) only.
Cells were dissociated with TrypLE Select and washed once with the FACs buffer with the 10% FBS, followed by the single wash with the FACs buffer. […] In some experiment samples were analyzed with the MACSQuant VYB (Miltenyi). […]
(In general: In flow cytometry, cells or beads pass a laser one at a time.)

For assay [2], the system named is HHT1-iPSC-derived ECs co-cultured with control iPSC-derived pericytes. Nature of the assay: 2D endothelial-pericyte co-culture sprouting assay, HHT1 patient ECs. The conditions noted are these: day 7, HHT1-iPSC ECs; for formation of the sprouting network: BMP9 1 ng/ml; for formation of endothelial sprouts: TGFβ3 1 ng/ml. As for the experimental part:
as §1
It was hypothesized that this system might be useful for distinguishing […] versus paracrine effects of endoglin deficiency in HHT1-iPSCs-derived ECs. Therefore, ECs from HHT-iPSC lines in the co-culture assay combined with the pericytes derived from the control iPSCs were examined. Little difference was observed between ECs from HHT1 and control iPSCs in co-culture. ECs from the patient harboring the 1083delAA and IVS 5+2 (T>C) mutation similar endothelial sprout formation as the controls (FIGS. 11A and 11B).
as §2

Assay [3] has as its system iPSC-derived pericytes/mesenchymal cells. Nature of the assay: Contractile smooth muscle marker expression in iPSC-derived pericytes/mesenchymal cells. The conditions noted are these: stimulation with TGFb (FIG. 16). As for the experimental part: Our differentiation system facilitates simultaneous derivation and expansion of pericytes and ECs from iPSC lines. […] Thus, a renewable source of pericytes/SMCs was created for co-culture with ECs that would in principle be able to simulate endothelial-pericyte interaction in humans.
iPSC-derived pericytes/mesenchymal cells were derived from the CD31− fraction emerging during the endothelial differentiation protocol. CD31− cells were plated on gelatin coated plates in EGM-2 media (Lonza). After 4 days medium was replaced by DMEM+10% FBS supplemented with TGFβ3 (2 ng/ml, Peprotech) and PDGF-BB (4 ng/ml, Peprotech). iPSC-derived pericytes were routinely maintained on gelatin-coated plates in DMEM+10% FBS. Cells were characterized for the expression of pericyte and mesenchymal cell-specific markers by flow cytometry and immunofluorescent staining as describe above.
ECs and pericytes were cultured as described above on gelatin coated coverslips. Cells were fixed with 4% PFA, permeabilized and stained with the following antibodies as described (Orlova et al., Manuscript in preparation): anti-Ve-Cadherin (1:200, CellSignaling), anti-vWF (1:200, Dako), anti-CD31 (1:200, Dako), anti-SM22a (1:200, Abcam), anti-SMA (1:400, Sigma), anti-CNN1 (1:200, Sigma).

For `C[C@H](NC(=O)Cc1cc(F)cc(F)c1)C(=O)N[C@H](C(=O)OC(C)(C)C)c1ccccc1` [DAPT, reference compound], the “number of tip cells” value in assay [1] (2D co-culture system with DAPT, 46 without DAPT) is given as 64.
As to `c1ccc2c(-c3cnn4cc(-c5ccc(N6CCNCC6)cc5)cnc34)ccnc2c1` [LDN1931189, reference compound], in assay [1] (LDN1931189, inhibition of ALK1/ALK2/ALK3 pathway, day 7), the sprout formation entry is reported as “no effect on sprout formation”.

B1: Activin: growth factor ActivinA (Miltenyi), 25 ng/ml in mesoderm induction medium (protein, UniProt P08476 311-426, looked up)
Inhibin beta A chain: GLECDGKVNICCKKQFFVSFKDIGWNDWIIAPSGYHANYCEGECPSHIAGTSGSSLSFHSTVINHYRMRGHSPFANLKSCCVPTKLRPMSMLYYDDGQNIIKKDIQNMIVEECGCS
modifications: Inhibin beta A chain
With B1, the “robustness and reproducibility of differentiation” value with hPSCs is “more robust and reproducible differentiation”.

B2: BMP9: BMP9 (R&D), ligand for signaling in ECs, circulating vascular quiescence factor (protein, UniProt Q9UK05 320-429, looked up)
Growth/differentiation factor …: SAGAGSHCQKTSLRVNFEDIGWDSWIIAPKEYEAYECKGGCFFPLADDVTPTKHAIVQTLVHLKFPTKVGKACCVPTKLSPISVLYKDDMGVPTLKYHYEGMSVAECGCR
As for B2, the “formation of the sprouting network” value in assay [2] is recorded as “selective inhibitory effect in HHT1-iPSC-derived ECs only”; in assay [2] (listed as BMP-9), “significant inhibition”; in assay [1] (BMP9 1 ng/ml, day 7, control iPSC ECs, listed as BMP-9) it was “no effect at all”.

B3: TGFβ3: growth factor TGFβ3 (Peprotech), transforming growth factor β ligand (protein, UniProt P10600 301-412, looked up)
Transforming growth factor …: ALDTNYCFRNLEENCCVRPLYIDFRQDLGWKWVHEPKGYYANFCSGPCPYLRSADTTHSTVLGLYNTLNPEASASPCCVPQDLEPLTILYYVGRTPKVEQLSNMVVKSCKCS
modifications: Transforming growth factor beta-3
notes: growth factor TGFβ3 (Peprotech), transforming growth factor β ligand
With B3, the “up-regulation of vSMC contractile markers” value in assay [3] is “up-regulation of vSMC markers”. The entries for the “formation of endothelial sprouts” value in assay [2] and in assay [2] (listed as TGFβ) were “inhibits sprout formation in all lines” and “inhibited formation of the endothelial sprouts; also recorded: inhibited endothelial network formation”, respectively. The “formation of vascular/endothelial sprouts” value was “dramatic reduction in the formation of the vascular sprouts; also recorded: inhibits sprout formation in all lines” in assay [1] (day 7) and “inhibited endothelial network formation” in assay [1] (day 7, listed as TGFβ).

B4: TRC105: anti-endoglin blocking antibody, in clinical trial as an anti-tumor therapy (antibody, chains of the INN, looked up, V domains shown)
VH: EVKLEESGGGLVQPGGSMKLSCAASGFTFSDAWMDWVRQSPEKGLEWVAEIRSKASNHATYYAESVKGRFTISRDDSKSSVYLQMNSLRAEDTGIYYCTRWRRFFDSWGQGTTLTVSS
VL: QIVLSQSPAILSASPGEKVTMTCRASSSVSYMHWYQQKPGSSPKPWIYATSNLASGVPVRFSGSGSGTSYSLTISRVEAEDAATYYCQQWSSNPLTFGAGTKLELK
For the molecule B4, the “formation of sprouts by ECs” value in assay [1] (TRC105 120 μg/ml, day 7) was “reduction in the formation of the sprouts; also recorded: significantly reduced sprouting”. For the same molecule, the “surface area covered by ECs” value in assay [1] (TRC105, co-culture assay) is given as “significantly reduced”.
